B1: CPEB3 Ribozyme (parent)
chain: UAACAGGGGGCCACAGCAGAAGCGUUCACGUCGCAGCCCCUGUCAGAUUCUGGUGAAUCUGCGAAUUCUGCUGUAUAUCUC

Variants of: B1
Test: self-cleavage, relative activity (ratio to wild type); higher = more cleavage; in vitro, sequencing
In short: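 After error-prone PCR and barcoding, CPEB3 ribozyme mutant libraries were transcribed with T7 RNA polymerase at 37°C for 5 hours, then given 15 min with DNase I before an EDTA stop, and they cleaved during both steps. Reverse transcription with template switching preceded Illumina sequencing. Relative activity divides a variant's cleaved/total read fraction by the unmutated ribozyme's. At least 5 reads were required per variant, and three batches were averaged.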

Row | Variant | self-cleavage
1 | G9A G55C | 0.24
2 | G9C U43C | 0.13
3 | G9A A65U | 0.17
4 | G9A A65G | 0.22
5 | G9A G46A | 0.13
6 | G9A A56C | 0.24
7 | G9A A56U | 0.23
8 | G9A A56G | 0.18
9 | G9A C40U | 0.08
10 | G9C A75G | 0.17
11 | G9A A28U | 0.22
12 | G9A A28G | 0.24
13 | G9A A28C | 0.2
14 | G8U U78C | 0.17
15 | G8U U78A | 0.21
16 | G9A U60C | 0.14
17 | G9A U60A | 0.22
18 | G9A U43G | 0.22
19 | G9A U43C | 0.29
20 | G9A U43A | 0.39
21 | G9C A65G | 0.32
22 | G9A C23U | 0.07
23 | G9C A15G | 0.39
24 | G9C A15U | 0.1

Row | Variant | self-cleavage
25 | G9C A15C | 0.34
26 | G9A A75G | 0.31
27 | G9A U69G | 0.2
28 | G9A U69A | 0.21
29 | G9A U69C | 0.1
30 | G9A U41A | 0.19
31 | G9A U41C | 0.43
32 | G9A U41G | 0.26
33 | G9U A13G | 0.24
34 | G9A G53A | 0.35
35 | G9A A45G | 0.39
36 | G9A A45U | 0.21
37 | G9C U72C | 0.37
38 | G9C U72G | 0.09
39 | G9A U54A | 0.13
40 | G9A U54C | 0.33
41 | G9C U54C | 0.41
42 | G9C A18U | 0.08
43 | G9C A18G | 0.16
44 | G9U A18C | 0.18
45 | G8U U76A | 0.28
46 | G8U U76C | 0.13
47 | G9A U51C | 0.37
48 | G9A U51A | 0.27

Row | Variant | self-cleavage
49 | G9A U67C | 0.08
50 | G9A U67A | 0.11
51 | G9C U58G | 0.06
52 | G9A U58G | 0.08
53 | G9A U58A | 0.07
54 | G9A U58C | 0.25
55 | G9A U49C | 0.23
56 | G9A U49A | 0.19
57 | G9A G30U | 0.06
58 | G9A G30A | 0.18
59 | G9A U78A | 0.44
60 | G9A U78C | 0.25
61 | G9A C68U | 0.27
62 | G9A G63A | 0.12
63 | G9A U25C | 0.21
64 | G9A U25A | 0.2
65 | G9C U76C | 0.3
66 | G9C A45U | 0.13
67 | G9C A45C | 0.25
68 | G9C A56G | 0.24
69 | G9C A28G | 0.07
70 | G8U U72A | 0.07
71 | G8U U72C | 0.15
72 | G9A G52A | 0.24

Row | Variant | self-cleavage
73 | G9A G52C | 0.13
74 | G9C A57U | 0.24
75 | G9A G73A | 0.47
76 | G9A C17U | 0.23
77 | G9A C17G | 0.1
78 | G9A C37U | 0.15
79 | G9A A18G | 0.21
80 | G9A A18U | 0.14
81 | G9A G16A | 0.17
82 | G9A U76C | 0.34
83 | G9A U76A | 0.45
84 | G9C G52A | 0.55
85 | G9A G42A | 0.3
86 | G8U U74G | 0.17
87 | G8U U74A | 0.41
88 | G9A A47U | 0.06
89 | G9A A47G | 0.37
90 | G9A G61A | 0.06
91 | G9C C44U | 0.18
92 | G9A G22C | 0.32
93 | G9A A64U | 0.39
94 | G9A A64G | 0.3
95 | G9A A64C | 0.06
96 | G9A A20G | 0.37

Row | Variant | self-cleavage
97 | G9A A20U | 0.43
98 | G9A A20C | 0.39
99 | G9C U74C | 0.26
100 | G9C G30U | 0.22
101 | G9C G30A | 0.1
102 | G9C G30C | 0.06
103 | G9A U26A | 0.29
104 | G9A U26C | 0.21
105 | G9A U26G | 0.07
106 | G9A U72A | 0.23
107 | G9A U72C | 0.39
108 | G9C U31C | 0.22
109 | G9C U31A | 0.19
110 | G9A C81U | 0.35
111 | G9A G24A | 0.22
112 | G9A G24C | 0.2
113 | G9A C38A | 0.25
114 | G9A G33A | 0.08
115 | G9C G55A | 0.41
116 | G9A G10A | 0.45
117 | G9A G10C | 0.2
118 | G9C | 0.24
119 | G9A | 0.29
120 | G9U | 0.24

Row | Variant | self-cleavage
121 | G9U A15G | 0.14
122 | G9U A15C | 0.36
123 | G9U A15U | 0.32
124 | G9A C79U | 0.16
125 | G9A U74C | 0.6
126 | G9C U60C | 0.25
127 | G9C U60A | 0.15
128 | G9C C79A | 0.58
129 | G8U U80A | 0.2
130 | G8U U80C | 0.16
131 | G8U U80G | 0.2
132 | G9A A35G | 0.66
133 | G9A A35U | 0.18
134 | G9C U51A | 0.09
135 | G9A A15G | 0.3
136 | G9A A15U | 0.15
137 | G9A U48C | 0.36
138 | G9C U41C | 0.15
139 | G9A U66A | 0.11
140 | G9A U66C | 0.24
141 | G9A C32U | 0.2
142 | G9C U67C | 0.11
143 | G9A U31A | 0.16
144 | G9A U31C | 0.29

Row | Variant | self-cleavage
145 | G9C A64U | 0.23
146 | G9C A64G | 0.08
147 | G9C U25C | 0.07
148 | G9A C34A | 0.2
149 | G9C A47G | 0.21
150 | G9A A21G | 0.19
151 | G9A A21C | 0.06
152 | G9C A20G | 0.06
153 | G9C C34A | 0.14
154 | G9A A13U | 0.28
155 | G9A A13G | 0.3
156 | G9A U80C | 0.23
157 | G9A U80A | 0.21
158 | G9A A57G | 0.22
159 | G9A A57U | 0.15
160 | G9C A35G | 0.27
161 | G9A A77C | 0.17
162 | G9A A77G | 0.3
163 | G9A A77U | 0.23
164 | G9C C71G | 0.05
165 | G9C A77C | 0.18
166 | G9A C27A | 0.04
167 | G9C A21U | 0.23
